Consider 21 molecules from patent US20240209062A1 (INVETX, published 2024).

A word on the Kd: it is the concentration at which binding is half-saturated. The low end stands for tighter binding, the high end for weaker binding. Broadly, the koff is a measure of how fast the partners let go of each other. Low values mean slow dissociation, high ones fast dissociation. What is called kon is the second-order rate constant of association. A high value points to faster complex formation.

Changes are numbered by the printed parent chain. Names and notes keep the numbering of the source.

To fix the notation:
B1: IgG with feline IgG1a Fc variant S428L, L309D (antibody)
heavy: DVQLVESGGDLVKPGGSLRLTCVASGLSLTSDSMSWVRQAPGKGLQWVSTLWSNRGTYYTDSVKGRFTISKDNAENTLYLQMNNLKTEDTATYYCASIYYYEADYLHWYFDFWGQGALVTVSSASTTAPSVFPLAPSCGTTSGATVALACLVLGYFPEPVTVSWNSGALTSGVHTFPAVLQASGLYSLSSMVTVPSSRWLSDTFTCNVAHPPSNTKVDKTVRKTDHPPGPKPCDCPKCPPPEAAGGPSIFIFPPKPKDTLSISRTPEVTCLVVDLGPDDSDVQITWFVDNTQVYTAKTSPREEQFNSTYRVVSVLPIDHQDWLKGKEFKCKVNSKSLPSPIERTISKAKGQPHEPQVYVLPPAQEELSRNKVSVTCLIKSFHPPDIAVEWEITGQPEPENNYRTTPPQLDSDGTYFVYSKLSVDRSHWQRGNTYTCSVLHEALHSHHTQKSLTQSPG
light: EIQMTQSPTSLSASVGDRVTITCRASEGIANNLSWYQQTPGKAPKLLIYATSNLHSGVPSRFSGSGSGTDFTLTISSLQPEDFATYYCQQGFKWPLTFGGGTKLEITRSDAQPSVFLFQPSLDELHTGSASIVCILNDFYPKEVNVKWKVDGVVQNKGIQESTTEQNSKDSTYSLSSTLTMSSTEYQSHEKFSCEVTHKSLASTLVKSFNRSECQRE
notes: IgG1a constant domain with MALA mutations (M234A, L244A as printed); variable domains from WO 2023/97275
B2: IgG with feline IgG1a Fc variant S428M, L309D (antibody)
heavy: B1 heavy with L439M
light: B1 light
notes: as for B1
B3: IgG with feline IgG1a Fc variant S428M, R301L (antibody)
heavy: B1 heavy with R310L, D318L, L439M
light: B1 light
notes: as for B1
B4: IgG with feline IgG1a Fc variant S428L, R301Y (antibody)
heavy: B1 heavy with R310Y, D318L
light: B1 light
notes: as for B1
B5: IgG with feline IgG1a Fc variant S428M, R392E (antibody)
heavy: B1 heavy with D318L, R403E, L439M
light: B1 light
notes: as for B1
B6: IgG with feline IgG1a Fc variant S428L, R301L (antibody)
heavy: B1 heavy with R310L, D318L
light: B1 light
notes: as for B1
B7: IgG with feline IgG1a Fc variant S428M, R301V (antibody)
heavy: B1 heavy with R310V, D318L, L439M
light: B1 light
notes: as for B1
B8: IgG with feline IgG1a Fc variant S428L, R301V (antibody)
heavy: B1 heavy with R310V, D318L
light: B1 light
notes: as for B1
B9: IgG with feline IgG1a Fc variant S428M, Q311V (antibody)
heavy: B1 heavy with D318L, Q320V, L439M
light: B1 light
notes: as for B1
B10: IgG with feline IgG1a Fc variant S428M, I377Y (antibody)
heavy: B1 heavy with D318L, I386Y, L439M
light: B1 light
notes: Printed '1377Y' read as I377Y; IgG1a constant domain with MALA mutations (M234A, L244A as printed); variable domains from WO 2023/97275; also called S428M, 1377Y
B11: IgG with feline IgG1a Fc variant S428L, R392E (antibody)
heavy: B1 heavy with D318L, R403E
light: B1 light
notes: as for B1
B12: IgG with feline IgG1a Fc variant S428M, L309V (antibody)
heavy: B1 heavy with D318V, L439M
light: B1 light
notes: as for B1
B13: IgG with feline IgG1a Fc variant S428M, L309E (antibody)
heavy: B1 heavy with D318E, L439M
light: B1 light
notes: as for B1
B14: IgG with feline IgG1a Fc variant S428L, T286D (antibody)
heavy: B1 heavy with T295D, D318L
light: B1 light
notes: as for B1
B15: IgG with feline IgG1a Fc variant S428M, R301Y (antibody)
heavy: B1 heavy with R310Y, D318L, L439M
light: B1 light
notes: as for B1
B16: IgG with feline IgG1a Fc variant S428L, R392D (antibody)
heavy: B1 heavy with D318L, R403D
light: B1 light
notes: as for B1
B17: IgG with feline IgG1a Fc variant S428M, T286E (antibody)
heavy: B1 heavy with T295E, D318L, L439M
light: B1 light
notes: as for B1
B18: IgG with feline IgG1a Fc variant S428M, T286D (antibody)
heavy: B1 heavy with T295D, D318L, L439M
light: B1 light
notes: as for B1
B19: IgG with feline IgG1a Fc variant S428M, I377L (antibody)
heavy: B1 heavy with D318L, I386L, L439M
light: B1 light
notes: Printed '1377L' read as I377L; IgG1a constant domain with MALA mutations (M234A, L244A as printed); variable domains from WO 2023/97275; also called S428M, 1377L
B20: IgG with feline IgG1a Fc variant S428M, R392D (antibody)
heavy: B1 heavy with D318L, R403D, L439M
light: B1 light
notes: as for B1
B21: IgG with feline IgG1a Fc variant S428M (antibody)
heavy: B1 heavy with D318L, L439M
light: B1 light
notes: as for B1

The target of the assay is T1, feline FcRn (soluble portion of large subunit p51 isoform X1 with C-terminal 6xHis-tag, co-expressed with … (feline, UniProt Q5MGS7 21-118)).
T1 construct: Heterodimer made by co-expression in CHO cells, purified on HisTrap FF; also called FcRn complex
T1 sequence (chain, as listed by the source limits assumed, chain 1 of 2): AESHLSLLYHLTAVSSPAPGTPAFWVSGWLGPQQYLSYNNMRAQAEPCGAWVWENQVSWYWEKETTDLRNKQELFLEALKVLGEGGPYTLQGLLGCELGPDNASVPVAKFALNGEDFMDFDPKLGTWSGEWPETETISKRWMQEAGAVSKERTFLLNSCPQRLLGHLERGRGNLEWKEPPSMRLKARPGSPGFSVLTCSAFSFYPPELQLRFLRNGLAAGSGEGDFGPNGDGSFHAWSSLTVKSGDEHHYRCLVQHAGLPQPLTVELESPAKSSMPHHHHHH
T1 sequence (Q5MGS7 other isoform, or with tags, fused parts or gaps limits assumed, chain 2 of 2): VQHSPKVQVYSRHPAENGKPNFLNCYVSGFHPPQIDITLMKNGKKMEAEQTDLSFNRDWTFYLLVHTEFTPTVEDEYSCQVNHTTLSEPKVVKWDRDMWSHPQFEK
Kind of assay: SPR, Biacore T200, IgG captured on Protein L chip, feline FcRn flowed over, pH 5.9, 1:1 fit. The method, then: The feline FcRn binding experiments at pH 5.9 were completed on a BIACORE™ T200 instrument. A Series S Protein L Sensor chip (Cytiva, Cat. No. BR29205137) was used to capture the antibody variants via the kappa (κ) light chain. The feline variants were captured onto the protein L chip at a flow rate of 10 μL/min for 60 seconds. 1×PBX-P+(Cytiva Cat 28995084) was adjusted to pH 5.9 for the running buffer. The feline FcRn was flowed over the sensor chip at 30 μL/min for 120 seconds contact time and 600 seconds dissociation time. Regeneration of the flow cells was completed by flowing over 10 mM glycine, pH 1.7 at 30 μL/min for 30 seconds. The data were evaluated by the BIACORE™T200 Evaluation software v3.2.1 by fitting to a 1:1 kinetic interaction model.
In general terms: In SPR one partner is held on a chip, and binding of the other changes the refractive index at the surface.
B1: the dissociation constant (Kd) came to 200 nM, the koff was determined as 0.12 s⁻¹ and the association rate constant (kon) worked out at 597000 M⁻¹ s⁻¹.
In the case of B2, the Kd was determined as 177 nM, the koff is 0.104 s⁻¹ and the kon came out at 592000 M⁻¹ s⁻¹.
In the same order, the values of B3 are 103 nM, 0.0835 s⁻¹ and 809000 M⁻¹ s⁻¹.
For B4, in that order: 99.1 nM, 0.0706 s⁻¹ and 712000 M⁻¹ s⁻¹.
Take B5: the Kd was 97.8 nM, the koff was determined as 0.0766 s⁻¹ and the on-rate constant (kon) was 784000 M⁻¹ s⁻¹.
On to B6, for which the equilibrium dissociation constant (Kd) was 115 nM, the off-rate constant (koff) was 0.116 s⁻¹ and the kon was found to be 1.01e+06 M⁻¹ s⁻¹.
As for B7, the dissociation constant (Kd) came to 98.5 nM, the off-rate (koff) is 0.0801 s⁻¹ and the kon turned out to be 812000 M⁻¹ s⁻¹.
For B8, in that order: 109 nM, 0.0832 s⁻¹ and 763000 M⁻¹ s⁻¹.
In the case of B9, the equilibrium dissociation constant (Kd) amounted to 28.4 nM, the off-rate constant (koff) came to 0.0319 s⁻¹ and the association rate constant (kon) was found to be 1.12e+06 M⁻¹ s⁻¹.
In the same order, the values of B10 are 70.8 nM, 0.0636 s⁻¹ and 900000 M⁻¹ s⁻¹.
For B11, in that order: 96.5 nM, 0.0772 s⁻¹ and 801000 M⁻¹ s⁻¹.
B12: binding was put at a Kd of 31.3 nM, the koff came to 0.0358 s⁻¹ and the kon stood at 1.15e+06 M⁻¹ s⁻¹.
In the same order, the values of B13 are 45.6 nM, 0.0413 s⁻¹ and 905000 M⁻¹ s⁻¹.
For B14, in that order: 33.4 nM, 0.0333 s⁻¹ and 1e+06 M⁻¹ s⁻¹.
For B15, in that order: 98.7 nM, 0.082 s⁻¹ and 830000 M⁻¹ s⁻¹.
With B16, the equilibrium dissociation constant (Kd) worked out at 104 nM, the dissociation rate constant (koff) was found to be 0.0934 s⁻¹ and the kon is 904000 M⁻¹ s⁻¹.
In turn, B17 gave an equilibrium dissociation constant (Kd) of 27.4 nM, a koff of 0.0292 s⁻¹ and a kon of 1.07e+06 M⁻¹ s⁻¹.
The molecule B18 had a Kd of 34.9 nM, a dissociation rate constant (koff) of 0.0372 s⁻¹ and a kon of 1.07e+06 M⁻¹ s⁻¹.
In the same order, the values of B19 are 76.2 nM, 0.0751 s⁻¹ and 981000 M⁻¹ s⁻¹.
For B20, in that order: 101 nM, 0.0795 s⁻¹ and 789000 M⁻¹ s⁻¹.
For B21, in that order: 70.1 nM, 0.0702 s⁻¹ and 1.01e+06 M⁻¹ s⁻¹.
